# Results taken from patent US7998940B2, “Aptamers to von Willebrand factor and their use as thrombotic disease therapeutics” (Archemix Corp., priority 2004, dated 2011).
# Numbering of substitutions follows the chain as printed.
# B1: AMX237.H5: DNA SELEX 2 aptamer clone (nucleic acid)
# DNA: CTACCTACGATCTGACTAGCTCCAGTGTTTCATTTAATAACCGTGCGGTGCCTCCGTGAGCTTACTCTCATGTAGTTCC
# modifications: DNA, backbone not given here
# notes: DNA SELEX 2 aptamer clone
# B2: AMX236.H1: DNA SELEX 2 aptamer clone (nucleic acid)
# chain: CTACCTACGATCTGACTAGCCTCAGATTGACTCCGGCCGACTTGTTTTAATCTTCTGAGTGCTTACTCTCATGTAGTTCC
# modifications: DNA, backbone not given here
# notes: DNA SELEX 2 aptamer clone
# B3: AMX238.G4: DNA SELEX 2 aptamer clone (nucleic acid)
# DNA: CTACCTACGATCTGACTAGCTTGTCGCACTTTTGGTTGGTCTGGTTGGTTCTAAGTGCGCTTACTCTCATGTAGTTCC
# modifications: DNA, backbone not given here
# notes: DNA SELEX 2 aptamer clone
# B4: AMX238.H9: DNA SELEX 2 aptamer clone (nucleic acid)
# DNA: B3 DNA with C51T
# modifications: DNA, backbone not given here
# notes: DNA SELEX 2 aptamer clone
# B5: AMX237.C4: DNA SELEX 2 aptamer clone (nucleic acid)
# DNA: CTACCTACGATCTGACTAGCTTTCAGTCTTCCACATTTATAGGGTTTGGCATTGGGTCTGGCTTACTCTCATGTAGTTCC
# modifications: DNA, backbone not given here
# notes: DNA SELEX 2 aptamer clone
# B6: AMX237.F1: DNA SELEX 2 aptamer clone (nucleic acid)
# DNA: B5 DNA with A35G
# modifications: DNA, backbone not given here
# notes: DNA SELEX 2 aptamer clone
# B7: AMX237.G2: DNA SELEX 2 aptamer clone (nucleic acid)
# DNA: B5 DNA with C31T, C34T
# modifications: DNA, backbone not given here
# notes: DNA SELEX 2 aptamer clone
# B8: AMX237.F5: DNA SELEX 2 aptamer clone (nucleic acid)
# DNA: B5 DNA with C24T
# modifications: DNA, backbone not given here
# notes: DNA SELEX 2 aptamer clone
# B9: AMX237.E5: DNA SELEX 2 aptamer clone (nucleic acid)
# DNA: B5 DNA with C32T
# modifications: DNA, backbone not given here
# notes: DNA SELEX 2 aptamer clone
# B10: AMX238.H11: DNA SELEX 2 aptamer clone (nucleic acid)
# DNA: B5 DNA with C31T
# modifications: DNA, backbone not given here
# notes: DNA SELEX 2 aptamer clone
# B11: AMX238.A12: DNA SELEX 2 aptamer clone (nucleic acid)
# DNA: CTACCTACGATCTGACTAGCCAGTTCTGGGAAAAATTATTTTTTTATTTCGATCGTATATGCTTACTCTCATGTAGTTCC
# modifications: DNA, backbone not given here
# notes: DNA SELEX 2 aptamer clone
# B12: AMX236.C9: DNA SELEX 2 aptamer clone (nucleic acid)
# chain: B11 DNA with A59T
# modifications: DNA, backbone not given here
# notes: DNA SELEX 2 aptamer clone
# B13: AMX237.B1: DNA SELEX 2 aptamer clone (nucleic acid)
# chain: CTACCTACGATCTGACTAGCTTGGTAGCGACACAGTGGAGCTGCGGTTTGGTCGACGTCAGCTTACTCTCATGTAGTTCC
# modifications: DNA, backbone not given here
# notes: DNA SELEX 2 aptamer clone
# B14: AMX238.A3: DNA SELEX 2 aptamer clone (nucleic acid)
# DNA: CTACCTACGATCTGACTAGCTCAAAGTATTACTTATTGGCAATAAGTCGTTTACTCTATAGCTTACTCTCATGTAGTTCC
# modifications: DNA, backbone not given here
# notes: DNA SELEX 2 aptamer clone
# Tested on: rabbit vWF A1 domain (SEQ ID NO 6)
# Assay: 3-point dot blot screen, rabbit vWF A1 domain
# Format: binding
# Details: 3-point dot blot screen, 20 nM rabbit vWF A1 domain; ratio of fraction of aptamer bound with target protein to fraction bound without protein
# Summary of the method: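 Rabbit vWF A1 domain binding was screened by dot blot using three conditions: no target protein, human vWF, and rabbit vWF A1 domain at 100 nM (20 nM in the screen run twice). Radiolabeled aptamer bound to nitrocellulose was quantified, and results are expressed as the ratio of bound fraction with protein to bound fraction without protein.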
# Sequence of rabbit vWF A1 domain (SEQ ID NO 6) (as listed by the source): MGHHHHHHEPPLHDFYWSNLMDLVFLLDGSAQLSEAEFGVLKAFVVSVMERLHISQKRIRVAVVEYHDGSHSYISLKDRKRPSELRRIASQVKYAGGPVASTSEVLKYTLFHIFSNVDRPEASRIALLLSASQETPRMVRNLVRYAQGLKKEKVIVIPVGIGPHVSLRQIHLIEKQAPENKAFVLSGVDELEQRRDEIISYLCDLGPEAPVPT
row,Molecule,Screen Rabbit/No Protein
1,B1,1.61
2,B2,1.14
3,B3,1.39
4,B4,1.32
5,B5,1.31
6,B6,1.22
7,B7,1.16
8,B8,1.22
9,B9,1.15
10,B10,1.14
11,B11,0.99
12,B12,1.00
13,B13,2.10
14,B14,1.03

# Tested on: full length human vWF
# Assay: 3-point dot blot screen, full length human vWF
# Format: binding
# Details: 20 nM full length human vWF, ratio of fraction of aptamer bound with target protein to fraction bound without protein
# Text: When a significant positive ratio of binding of DNA in the presence of human or rabbit vWF A1 domain versus in the absence of protein was seen, the pools were cloned using the TOPO TA cloning kit (Invitrogen Cat. #45-0641, Carlsbad, Calif.) according to the manufacturer's instructions. Round 7 and 11 pool templates were cloned and sequenced (218 total sequences), producing 146 unique clones within 12 sequence families of which sequences from six families show vWF target binding activity. All unique clones were assayed twice in a 3-point dot blot screen (no protein target control, 20 nM full length human vWF (Calbiochem Cat. #681300, La Jolla, Calif.), or 20 nM rabbit vWF A1 domain. The data is presented in the third and fourth columns of Table 17 below as the ratio of the fraction of the aptamer bound to the nitrocellulose in the presence of the target protein to the fraction of aptamer bound in the absence of the target protein.
row,Molecule,Screen- Human/No Protein
1,B1,1.63
2,B2,1.10
3,B3,1.09
4,B4,1.11
5,B5,0.97
6,B6,0.98
7,B7,1.02
8,B8,0.99
9,B9,0.97
10,B10,0.98
11,B11,1.23
12,B12,1.24
13,B13,2.00
14,B14,1.36
